The values below come from US20180118786A1 (ECOLE POLYTECHNIQUE FEDERALE DE LAUSANNE EPFL, published 2018).

The labels stand for the following.
B1: peptide 15 (peptide 2, Pro6 to alanine) (peptide)
peptide: RCFRLACRQLRCRW-NH2
modifications: linker 2-7-12 via TATA; N-terminus assumed
SMILES: CC(C)C[C@@H]1NC(=O)[C@H](CCCNC(=N)N)NC(=O)[C@H](Cc2ccccc2)NC(=O)[C@@H](NC(=O)[C@@H](N)CCCNC(=N)N)CSCCC(=O)N2CN3CN(C2)C(=O)CCSC[C@@H](C(=O)N[C@@H](CCCNC(=N)N)C(=O)N[C@@H](Cc2c[nH]c4ccccc24)C(N)=O)NC(=O)[C@H](CCCNC(=N)N)NC(=O)[C@H](CC(C)C)NC(=O)[C@H](CCC(N)=O)NC(=O)[C@H](CCCNC(=N)N)NC(=O)[C@H](CSCCC3=O)NC(=O)[C@H](C)NC1=O
B2: peptide 10 (peptide 2, Arg4 to lysine) (peptide)
peptide: RCFKLPCRQLRCRW-NH2
modifications: linker 2-7-12 via TATA; N-terminus assumed
SMILES: CC(C)C[C@@H]1NC(=O)[C@H](CCC(N)=O)NC(=O)[C@H](CCCNC(=N)N)NC(=O)[C@@H]2CSCCC(=O)N3CN(CN(C3)C(=O)CCSC[C@H](NC(=O)[C@@H](N)CCCNC(=N)N)C(=O)N[C@@H](Cc3ccccc3)C(=O)N[C@@H](CCCCN)C(=O)N[C@@H](CC(C)C)C(=O)N3CCC[C@H]3C(=O)N2)C(=O)CCSC[C@@H](C(=O)N[C@@H](CCCNC(=N)N)C(=O)N[C@@H](Cc2c[nH]c3ccccc23)C(N)=O)NC(=O)[C@H](CCCNC(=N)N)NC1=O
B3: peptide 5 (peptide 2, Phe3 to leucine) (peptide)
peptide: RCLRLPCRQLRCRW-NH2
modifications: linker 2-7-12 via TATA; N-terminus assumed
SMILES: CC(C)C[C@@H]1NC(=O)[C@H](CCC(N)=O)NC(=O)[C@H](CCCNC(=N)N)NC(=O)[C@@H]2CSCCC(=O)N3CN(CN(C3)C(=O)CCSC[C@H](NC(=O)[C@@H](N)CCCNC(=N)N)C(=O)N[C@@H](CC(C)C)C(=O)N[C@@H](CCCNC(=N)N)C(=O)N[C@@H](CC(C)C)C(=O)N3CCC[C@H]3C(=O)N2)C(=O)CCSC[C@@H](C(=O)N[C@@H](CCCNC(=N)N)C(=O)N[C@@H](Cc2c[nH]c3ccccc23)C(N)=O)NC(=O)[C@H](CCCNC(=N)N)NC1=O
notes: Number tied to residue by the order of the list
B4: peptide 4 (peptide 2, Phe3 to tyrosine) (peptide)
peptide: RCYRLPCRQLRCRW-NH2
modifications: linker 2-7-12 via TATA; N-terminus assumed
SMILES: CC(C)C[C@@H]1NC(=O)[C@H](CCC(N)=O)NC(=O)[C@H](CCCNC(=N)N)NC(=O)[C@@H]2CSCCC(=O)N3CN(CN(C3)C(=O)CCSC[C@H](NC(=O)[C@@H](N)CCCNC(=N)N)C(=O)N[C@@H](Cc3ccc(O)cc3)C(=O)N[C@@H](CCCNC(=N)N)C(=O)N[C@@H](CC(C)C)C(=O)N3CCC[C@H]3C(=O)N2)C(=O)CCSC[C@@H](C(=O)N[C@@H](CCCNC(=N)N)C(=O)N[C@@H](Cc2c[nH]c3ccccc23)C(N)=O)NC(=O)[C@H](CCCNC(=N)N)NC1=O
notes: as for B3
B5: JS36 (rs…^bCR) (peptide)
peptide: H-[dR][dS]CFRLPCHQL[β3hR]CR-NH2
modifications: linker 3-8-13 via TATA
B6: JS33-R (rsCF^4…^bC) (peptide)
peptide: H-[dR][dS]C[Phe(4-F)]RLPCHQL[β3hR]C-NH2
modifications: linker 3-8-13 via TATA
SMILES: CC(C)C[C@@H]1NC(=O)[C@H](CCC(N)=O)NC(=O)[C@H](Cc2c[nH]cn2)NC(=O)[C@@H]2CSCCC(=O)N3CN(CN(C3)C(=O)CCSC[C@H](NC(=O)[C@@H](CO)NC(=O)[C@H](N)CCCNC(=N)N)C(=O)N[C@@H](Cc3ccc(F)cc3)C(=O)N[C@@H](CCCNC(=N)N)C(=O)N[C@@H](CC(C)C)C(=O)N3CCC[C@H]3C(=O)N2)C(=O)CCSC[C@@H](C(N)=O)NC(=O)C[C@H](CCCNC(=N)N)NC1=O
B7: JS33 (rsCF^4…^bCR) (peptide)
peptide: H-[dR][dS]C[Phe(4-F)]RLPCHQL[β3hR]CR-NH2
modifications: linker 3-8-13 via TATA
SMILES: CC(C)C[C@@H]1NC(=O)[C@H](CCC(N)=O)NC(=O)[C@H](Cc2c[nH]cn2)NC(=O)[C@@H]2CSCCC(=O)N3CN(CN(C3)C(=O)CCSC[C@H](NC(=O)[C@@H](CO)NC(=O)[C@H](N)CCCNC(=N)N)C(=O)N[C@@H](Cc3ccc(F)cc3)C(=O)N[C@@H](CCCNC(=N)N)C(=O)N[C@@H](CC(C)C)C(=O)N3CCC[C@H]3C(=O)N2)C(=O)CCSC[C@@H](C(=O)N[C@@H](CCCNC(=N)N)C(N)=O)NC(=O)C[C@H](CCCNC(=N)N)NC1=O
notes: rs is D-Arg-D-Ser; F^4F is 4-fluoro-phenylalanine
B8: JS35 (rsCF^4…^bCR) (peptide)
peptide: H-[dR][dS]C[Phe(4-F)]RLPCRQL[β3hR]CR-NH2
modifications: linker 3-8-13 via TATA
SMILES: CC(C)C[C@@H]1NC(=O)[C@H](CCC(N)=O)NC(=O)[C@H](CCCNC(=N)N)NC(=O)[C@@H]2CSCCC(=O)N3CN(CN(C3)C(=O)CCSC[C@H](NC(=O)[C@@H](CO)NC(=O)[C@H](N)CCCNC(=N)N)C(=O)N[C@@H](Cc3ccc(F)cc3)C(=O)N[C@@H](CCCNC(=N)N)C(=O)N[C@@H](CC(C)C)C(=O)N3CCC[C@H]3C(=O)N2)C(=O)CCSC[C@@H](C(=O)N[C@@H](CCCNC(=N)N)C(N)=O)NC(=O)C[C@H](CCCNC(=N)N)NC1=O
B9: JS34 (rsCF^4…) (peptide)
peptide: H-[dR][dS]C[Phe(4-F)]RLPCHQLRCR-NH2
modifications: linker 3-8-13 via TATA
SMILES: CC(C)C[C@@H]1NC(=O)[C@H](CCC(N)=O)NC(=O)[C@H](Cc2c[nH]cn2)NC(=O)[C@@H]2CSCCC(=O)N3CN(CN(C3)C(=O)CCSC[C@H](NC(=O)[C@@H](CO)NC(=O)[C@H](N)CCCNC(=N)N)C(=O)N[C@@H](Cc3ccc(F)cc3)C(=O)N[C@@H](CCCNC(=N)N)C(=O)N[C@@H](CC(C)C)C(=O)N3CCC[C@H]3C(=O)N2)C(=O)CCSC[C@@H](C(=O)N[C@@H](CCCNC(=N)N)C(N)=O)NC(=O)[C@H](CCCNC(=N)N)NC1=O
B10: FXII618 variant with P in position six replaced by S (peptide)
peptide: RCFRLSCRQLRCRW-NH2
modifications: linker 2-7-12 via TATA; N-terminus assumed
SMILES: CC(C)C[C@@H]1NC(=O)[C@H](CCC(N)=O)NC(=O)[C@H](CCCNC(=N)N)NC(=O)[C@@H]2CSCCC(=O)N3CN(CN(C3)C(=O)CCSC[C@H](NC(=O)[C@@H](N)CCCNC(=N)N)C(=O)N[C@@H](Cc3ccccc3)C(=O)N[C@@H](CCCNC(=N)N)C(=O)N[C@@H](CC(C)C)C(=O)N[C@@H](CO)C(=O)N2)C(=O)CCSC[C@@H](C(=O)N[C@@H](CCCNC(=N)N)C(=O)N[C@@H](Cc2c[nH]c3ccccc23)C(N)=O)NC(=O)[C@H](CCCNC(=N)N)NC1=O
B11: FXII618 variant with F in position three replaced by 1-naphthylalanine (peptide)
peptide: H-RC[1Nal]RLPCRQLRCRW-NH2
modifications: linker 2-7-12 via TATA
B12: FXII618 variant with F in position three replaced by 3-benzothienylalanine (peptide)
peptide: H-RC[3‑benzothienylalanine]RLPCRQLRCRW-NH2
modifications: linker 2-7-12 via TATA
B13: peptide 9 (peptide 2, Phe3 to proline) (peptide)
peptide: RCPRLPCRQLRCRW-NH2
modifications: linker 2-7-12 via TATA; N-terminus assumed
SMILES: CC(C)C[C@@H]1NC(=O)[C@H](CCC(N)=O)NC(=O)[C@H](CCCNC(=N)N)NC(=O)[C@@H]2CSCCC(=O)N3CN(CN(C3)C(=O)CCSC[C@H](NC(=O)[C@@H](N)CCCNC(=N)N)C(=O)N3CCC[C@H]3C(=O)N[C@@H](CCCNC(=N)N)C(=O)N[C@@H](CC(C)C)C(=O)N3CCC[C@H]3C(=O)N2)C(=O)CCSC[C@@H](C(=O)N[C@@H](CCCNC(=N)N)C(=O)N[C@@H](Cc2c[nH]c3ccccc23)C(N)=O)NC(=O)[C@H](CCCNC(=N)N)NC1=O
notes: as for B3
B14: peptide 57 (peptide 2, fluorine in meta-position of Phe3) (peptide)
peptide: RC[Phe(3-F)]RLPCRQLRCRW-NH2
modifications: linker 2-7-12 via TATA
B15: peptide 63 (bicyclic peptide without the C-terminal arginine) (peptide)
peptide: RCFRLPCRQLRC-NH2
modifications: linker 2-7-12 via TATA; N-terminus assumed
SMILES: CC(C)C[C@@H]1NC(=O)[C@H](CCC(N)=O)NC(=O)[C@H](CCCNC(=N)N)NC(=O)[C@@H]2CSCCC(=O)N3CN(CN(C3)C(=O)CCSC[C@H](NC(=O)[C@@H](N)CCCNC(=N)N)C(=O)N[C@@H](Cc3ccccc3)C(=O)N[C@@H](CCCNC(=N)N)C(=O)N[C@@H](CC(C)C)C(=O)N3CCC[C@H]3C(=O)N2)C(=O)CCSC[C@@H](C(N)=O)NC(=O)[C@H](CCCNC(=N)N)NC1=O
B16: peptide 62 (bicyclic peptide without the N-terminal arginine) (peptide)
peptide: CFRLPCRQLRCR-NH2
modifications: linker 1-6-11 via TATA; N-terminus assumed
SMILES: CC(C)C[C@@H]1NC(=O)[C@H](CCC(N)=O)NC(=O)[C@H](CCCNC(=N)N)NC(=O)[C@@H]2CSCCC(=O)N3CN(CN(C3)C(=O)CCSC[C@H](N)C(=O)N[C@@H](Cc3ccccc3)C(=O)N[C@@H](CCCNC(=N)N)C(=O)N[C@@H](CC(C)C)C(=O)N3CCC[C@H]3C(=O)N2)C(=O)CCSC[C@@H](C(=O)N[C@@H](CCCNC(=N)N)C(N)=O)NC(=O)[C@H](CCCNC(=N)N)NC1=O

In general, Ki refers to a dissociation constant, usually derived from enzyme kinetics or from competition with a known ligand. A low value points to higher affinity.

Starred links: 1 amine or outer side, 2 acyl side, 3 side chain; linkers in the order of their positions; H or OH if unused. Positions of bridges follow the written chain, without caps; N, C: chain ends. Non-standard residues stand in square brackets, D forms with d. No end group written: not given here. TATA = O=C(CC[*:1])N1CN(C(=O)CC[*:2])CN(C(=O)CC[*:3])C1; Phe(3-F) = N[C@@H](Cc1cccc(F)c1)C(=O)O; Phe(4-F) = N[C@@H](Cc1ccc(F)cc1)C(=O)O; 1Nal = N[C@@H](Cc1cccc2ccccc12)C(=O)O; β3hR = N=C(N)NCCC[C@H](N)CC(=O)O

T1 sequence (P00748 373-615 limits assumed, one chain of several): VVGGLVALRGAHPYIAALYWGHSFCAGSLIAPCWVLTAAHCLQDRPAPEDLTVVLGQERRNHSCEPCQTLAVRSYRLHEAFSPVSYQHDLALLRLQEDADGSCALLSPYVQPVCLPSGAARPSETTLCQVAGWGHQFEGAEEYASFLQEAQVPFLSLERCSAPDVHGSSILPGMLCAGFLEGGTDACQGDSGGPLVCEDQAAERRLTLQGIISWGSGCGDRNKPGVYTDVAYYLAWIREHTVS

The first assay concerns the target T1, human β-FXIIa (HFXIIAB; Molecular Innovations) (human, UniProt P00748 354-362; P00748 373-615, limits assumed).
T1 construct: domain: catalytic domain; Bought; also called human b-FXIIa; human FXIIa
As to the kind of experiment: protease inhibition assay.
Regarding B1, the “fold reduction of activity vs peptide 2” value is less than 2 fold. With B2, the “fold reduction of activity vs peptide 2” value stood at 10 fold. The same measure, in the same setting: for B3 the value was more than 2 fold.

Turning to B4, the “fold reduction of activity vs peptide 2” value was more than 2 fold.

The target of the next assay is T1, human β-FXIIa (HFXIIAB; Molecular …). As to the kind of experiment: protease inhibition assay. This is another data set of the same source.
B5 had a Ki of 1 nM. This counts as single-digit nanomolar. For the molecule B6, the affinity corresponds to a Ki of 0.4 nM. On to B7, for which the Ki was determined as 0.36 nM. The Ki values of the last two molecules are within 1.5-fold of each other.

With B8, the Ki stood at 0.32 nM. B9: the Ki was 0.64 nM.

The target is the same in another assay. As to the kind of experiment: protease inhibition assay (FIG. 6).
For B10, the Ki is less than 100 nM.

B1 registered a Ki of less than 100 nM.

The next assay shares this target. As to the kind of experiment: protease inhibition assay (Table in FIG. 6).
For the molecule B11, the Ki was less than 50 nM.

B12 gave a Ki of less than 50 nM. In turn, B3 gave a Ki of less than 100 nM. For B13, the Ki was less than 100 nM. Regarding B4, the Ki is less than 100 nM.

Take B14: the Ki was less than 100 nM.

For another assay the target is unchanged. The assay can be described thus: protease inhibition assay, fluorogenic substrate.
B15: affinity was put at a Ki of 28.8 nM.

Molecule B16 gave a Ki of 932 nM.

B2 yielded a Ki of 283 nM.
